The values below come from patent CN114685666A (ZHEJIANG NANOMETER ANTIBODY TECH CENTER LIMITED COMPANY, dated 2022).

The target in assay [1] is T1, 人MSLN.His抗原 (MSLN.His蛋白, 义翘神州科技股份有限公司, MSN-H5223) (human, UniProt Q13421 296-580, limits assumed).
T1 construct: Bought protein; not shown: His tag
As to the kind of experiment: SPR (Biacore), antibody captured on protein A chip, MSLN.His as analyte at 5 concentrations. For orientation: SPR reads the build-up and loss of mass on a sensor chip optically.

The target of assay [2] is MSLN expressed on HEK293T cells (HEK293T MSLN细胞) (UniProt Q13421). The assay can be described thus: flow cytometry on HEK293T cells expressing MSLN, anti-human IgG PE detection. (In general: In flow cytometry, cells or beads pass a laser one at a time.)

T1 sequence (Q13421 other isoform, or with tags, fused parts or gaps limits assumed): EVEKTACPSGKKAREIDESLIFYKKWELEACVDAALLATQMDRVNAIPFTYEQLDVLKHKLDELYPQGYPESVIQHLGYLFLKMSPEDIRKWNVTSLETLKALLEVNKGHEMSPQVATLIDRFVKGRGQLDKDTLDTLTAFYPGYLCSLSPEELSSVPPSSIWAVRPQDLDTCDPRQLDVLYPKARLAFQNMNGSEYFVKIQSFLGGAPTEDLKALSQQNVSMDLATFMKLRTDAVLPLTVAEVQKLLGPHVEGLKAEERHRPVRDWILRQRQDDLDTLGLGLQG

B1: M2339 (重链抗体, 纳米抗体构建到pCDNA3.4-IgG4载体上表达) (Fc fusion)
heavy: QLQLGASGGGLVQPGGSLRLSCALSGFTLRELDEFAIGWFRQAPGKEREGVSCISGTGGITHYADSVKGRFTISRDIAKTTVYLQMNSLNSEDTAVYYCAADERCTDRLIRPPTYWGQGTQVTVSS
notes: also called 候选抗体; not shown: IgG4 constant part from the vector pCDNA3.4-IgG4
In general, Kd refers to the free concentration of one partner at which half of the binding sites on the other are occupied at equilibrium, for simple one-to-one binding. A higher Kd goes with lower affinity. The term koff denotes the first-order rate constant of dissociation. A word on the kon: it is the rate constant with which the complex forms. Read a high kon as faster complex formation. As a reminder, the EC50 is the midpoint of the concentration-response curve. Low values mean an effect from little substance, high ones a need for much substance. Turning to B1, in assay [1], the dissociation constant (Kd) turned out to be 0.264 nM, the koff amounted to 1.82e-05 s⁻¹ and the association rate constant (kon) came to 69000 M⁻¹ s⁻¹. This molecule yielded an EC50 in assay [2] of 3.68 nM.
